Test results: the RNAGym collection of RNA variant scans (doi:10.1073/pnas.2313332121)

B1: TPR t1 (parent)
chain: GACCAAUCUGCCCUCAGAGCUCGAGAACAUCUUCGGAUGCAGAGGAGGCAGGCUUCGGUGGCGCGAUAGCGCCAACGUCCUCAACCUCCAAUGCAUCCCACCACAUGAUGAUGCCUGAAGAGCCUUGGUUUUUUG

Variants of: B1
Test: polymerase ribozyme fitness, log enrichment relative to wild type (log ratio); higher = more active; in vitro selection for triplet polymerase activity
How it was run: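 The heterodimeric triplet polymerase ribozyme's subunits were each mutagenized into PCR-built libraries and transcribed. Every library was selected once, in triplicate, by annealing with a biotinylated primer, the partner subunit and triplets, incubating frozen at −7 °C, gel-excising extended constructs, capturing on streptavidin beads and running RT-PCR. Input and output libraries were Illumina-sequenced, with genotypes kept only at ≥10 input reads and ≥1 read per output. Fitness, from inverse-variance-weighted replicate averages, is the base-2 logarithm of genotype enrichment over wild-type enrichment.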

| Variant | polymerase ribozyme fitness (log ratio) |
| --- | --- |
| G36U C73U C114G C115G A119C G127U | -6.83 |
| G36C C94U | -1.47 |
| G36C C40A A74C G93C | -2.45 |
| G36A G61U U87C C123G | 0.936 |
| G36A U125G | -1.83 |
| G36U A105C G135U | -4.66 |
| G36A U109A | -5.64 |
| G35U G61A | -4.27 |
| G35C G39U C64U | -7.51 |
| G35U G45U G61U C97A C123G | -5.69 |
| G36A U92A C115U | -4.93 |
| G36C C53U G61A U112A G113U | -1.83 |
| G36A C102U | -3.67 |
| G35C U106C | -4.83 |
| G36C U92A A118U | -3.89 |
| G36A U54A C89G C101G | -5.15 |
| G35A C102A | -4.61 |
| G35A C53G C104U G117U C124G U126G | -5.98 |
| G36C G42A C89U C114A G117C | -6.44 |
| G36A C62A | -1.61 |
| G36A C62U | -0.332 |

| Variant | polymerase ribozyme fitness (log ratio) |
| --- | --- |
| G36U C89A | -2.46 |
| G36U G48A C72U | -1.42 |
| G36A G42A U54G C72U A75U | -2.79 |
| G36C C49U C101G A119U | -3.31 |
| G36U G69U | -0.697 |
| G35A G69C C115U | -6.53 |
| G36A C73U G127C | -2.76 |
| G36U C123G U131G | 0.0423 |
| G36C U112G G117A | -3.75 |
| G36A A37G G52C | -4.05 |
| G36U C56G C123G | -5.15 |
| G36U G44A G47A G48U C82G A121C | -0.473 |
| G36C G120A | -0.114 |
| G36C G120U | -0.655 |
| G35C C115U A118U | -7.09 |
| G35A U130G | -5.13 |
| G36U G47U G61A | -4.11 |
| G36U A43U | -2.65 |
| G35A C62A A119G | -4.46 |
| G35C A83U A121G U126A | -4.11 |
| G35C C76G | -4.89 |

| Variant | polymerase ribozyme fitness (log ratio) |
| --- | --- |
| G35C G61A A121U U126A | -3.79 |
| G36U C123A | -0.268 |
| G36U C123G | 0.712 |
| G36C U38C G71U | -4.73 |
| G35C G36A C40A C94U C114U | -6.41 |
| G35A G60U A121U | -2.03 |
| G36C G61C C86U C114U | -6.11 |
| G35A G61U | -3.61 |
| G35C A111C | -4.47 |
| G36A G61C G93C G110A | -6.04 |
| G35U C97U G120U | -5.69 |
| G36U C72G C102U A119U | -4.07 |
| G35U U59A | -6.05 |
| G35A U129A | -5.19 |
| G35A U132A | -3.49 |
| G36U C53U A105C | -2.88 |
| G36U C104A | -2.99 |
| G35A G60U | -3.33 |
| G36A G58A C62U U116A | -4.45 |
| G36A A37U C86U U112A G120U | -5.12 |
| G36U G69U U96C C101U U126A | -2.59 |

| Variant | polymerase ribozyme fitness (log ratio) |
| --- | --- |
| G36C A50U C62U C101G | -4.84 |
| G36U G44A U59A G60A G77C U112C | 0.0936 |
| G36C G45C A111C G122A | -2.97 |
| C34U U78G | -5.06 |
| G35A U87G | -3.91 |
| G35A A100G | -6.42 |
| G35A A66G | -6.38 |
| G36U U54A C72A | -0.869 |
| C34U U109A U130G | -4.69 |
| G35U U54C C64G C76G C85U G113U | -7.14 |
| G35A G117C | -6.51 |
| G35A G117U | -5.09 |
| G36A G63A | -1.78 |
| G35C G61C C98G | -5.36 |
| G36C C88U C89A | -3.3 |
| G36U C56U | -1.07 |
| C34U U112C C124A | -1.63 |
| G35U C72U | -4.43 |
| G36A U59G G69A C94U G113A | -4.53 |
| G36C G57U A90C U106A | -3.67 |
